B1: M-Q6AI08 (protein, UniProt Q6AI08 1-1181, looked up)
HEAT repeat-containing …: MAAVQVVGSWPSVQPREAPREAIPERGNGFRLLSARLCALRPDDSSSARTEIHLLFDQLISENYSEGSGVAPEDVSALLVQACRLVPLNQNHLVSKVSQLIHHLLNRLQVIVDEQHLDFLLAYTISAIHQCSSWTHREILQALAALVYCNGSKCQKYLPELLGNTGLLMKLSDLAQSDPEVRRAAVHCMANLCLSVPGQPYLEEPYQNVCFQAFLTILQSPKSSDMDDITFCMLLQNALKGIQSLLNGGRMKLTQTDELGALLAVLKKFMFHGLPGLNIEMPTVLYPTPLPQYDGRTPIKPQQSESSASRPTLNKKKKSKVKPKKIQQGEEEEKESSGEIEAAPVTGTGRVNLHEGNTWCPSSLGVQSLPLDGSGAAEKDGVSSSFSSSSWKRVSSSESDFSDAEGGMQSKMRSYQAKVRQGALVCFLSTIKSIEKKVLYGYWSAFIPDTPELGSPQSVSLMTLTLKDPSPKTRACALQVLSAILEGSKQFLSVAEDTSDHRRAFTPFSVMIACSIRELHRCLLLALVAESSSQTVTQIIKCLANLVSNAPYDRLKLSLLTKVWNQIKPYIRHKDVNVRVSSLTLLGAIVSTHAPLPEVQLLLQQPCSSGLGNSNSATPHLSPPDWWKKAPAGPSLEETSVSSPKGSSEPCWLIRLCISIVVLPKEDSCSGSDAGSAAGSTYEPSPMRLEALQVLTLLARGYFSMTQAYLMELGEVICKCMGEADPSIQLHGAKLLEELGTGLIQQYKPDSTAAPDQRAPVFLVVMFWTMMLNGPLPRALQNSEHPTLQASACDALSSILPEAFSNLPNDRQMLCITVLLGLNDSKNRLVKAATSRALGVYVLFPCLRQDVIFVADAANAILMSLEDKSLNVRAKAAWSLGNLTDTLIVNMETPDPSFQEEFSGLLLLKMLRSAIEASKDKDKVKSNAVRALGNLLHFLQPSHIEKPTFAEIIEESIQALISTVLTEAAMKVRWNACYAMGNVFKNPALPLGTAPWTSQAYNALTSVVTSCKNFKVRIRSAAALSVPGKREQYGSVDQYARIWNALVTALQKSEDTIDFLEFKYCVSLRTQICQALIHLLSLASASDLPCMKETLELSGNMVQSYILQFLKSGAEGDDTGAPHSPQERDQMVRMALKHMGSIQAPTGDTARRAIMGFLEEILAVCFDSSGSQGALPGLTNQ
modifications: interaction partner of SARS-CoV-2 M
B2: M-Q7RTS9 (protein, UniProt Q7RTS9 2-669, looked up)
Dymeclin: GSNSSRIGDLPKNEYLKKLSGTESISENDPFWNQLLSFSFPAPTSSSELKLLEEATISVCRSLVENNPRTGNLGALIKVFLSRTKELKLSAECQNHIFIWQTHNALFIICCLLKVFICQMSEEELQLHFTYEEKSPGNYSSDSEDLLEELLCCLMQLITDIPLLDITYEISVEAISTMVVFLSCQLFHKEVLRQSISHKYLMRGPCLPYTSKLVKTLLYNFIRQEKPPPPGAHVFPQQSDGGGLLYGLASGVATGLWTVFTLGGVGSKAAASPELSSPLANQSLLLLLVLANLTDASDAPNPYRQAIMSFKNTQDSSPFPSSIPHAFQINFNSLYTALCEQQTSDQATLLLYTLLHQNSNIRTYMLARTDMENLVLPILEILYHVEERNSHHVYMALIILLILTEDDGFNRSIHEVILKNITWYSERVLTEISLGSLLILVVIRTIQYNMTRTRDKYLHTNCLAALANMSAQFRSLHQYAAQRIISLFSLLSKKHNKVLEQATQSLRGSLSSNDVPLPDYAQDLNVIEEVIRMMLEIINSCLTNSLHHNPNLVYALLYKRDLFEQFRTHPSFQDIMQNIDLVISFFSSRLLQAGAELSVERVLEIIKQGVVALPKDRLKKFPELKFKYVEEEQPEEFFIPYVWSLVYNSAVGLYWNPQDIQLFTMDSD
modifications: interactor of viral M protein
B3: M-Q6PJG6 (protein, UniProt Q6PJG6 1-821, looked up)
Integrator complex assembly …: MDPECAQLLPALCAVLVDPRQPVADDTCLEKLLDWFKTVTEGESSVVLLQEHPCLVELLSHVLKVQDLSSGVLSFSLRLAGTFAAQENCFQYLQQGELLPGLFGEPGPLGRATWAVPTVRSGWIQGLRSLAQHPSALRFLADHGAVDTIFSLQGDSSLFVASAASQLLVHVLALSMRGGAEGQPCLPGGDWPACAQKIMDHVEESLCSAATPKVTQALNVLTTTFGRCQSPWTEALWVRLSPRVACLLERDPIPAAHSFVDLLLCVARSPVFSSSDGSLWETVARALSCLGPTHMGPLALGILKLEHCPQALRTQAFQVLLQPLACVLKATVQAPGPPGLLDGTADDATTVDTLLASKSSCAGLLCRTLAHLEELQPLPQRPSPWPQASLLGATVTVLRLCDGSAAPASSVGGHLCGTLAGCVRVQRAALDFLGTLSQGTGPQELVTQALAVLLECLESPGSSPTVLKKAFQATLRWLLSSPKTPGCSDLGPLIPQFLRELFPVLQKRLCHPCWEVRDSALEFLTQLSRHWGGQADFRCALLASEVPQLALQLLQDPESYVRASAVTAMGQLSSQGLHAPTSPEHAEARQSLFLELLHILSVDSEGFPRRAVMQVFTEWLRDGHADAAQDTEQFVATVLQAASRDLDWEVRAQGLELALVFLGQTLGPPRTHCPYAVALPEVAPAQPLTEALRALCHVGLFDFAFCALFDCDRPVAQKSCDLLLFLRDKIASYSSLREARGSPNTASAEATLPRWRAGEQAQPPGDQEPEAVLAMLRSLDLEGLRSTLAESSDHVEKSPQSLLQDMLATGGFLQGDEADCY
B4: M-Q68DH5 (protein, UniProt Q68DH5 1-695, looked up)
G-protein coupled …: MSGAALGLEIVFVFFLALFLLHRYGDFKKQHRLVIIGTLLAWYLCFLIVFILPLDVSTTIYNRCKHAAANSSPPENSNITGLYATANPVPSQHPCFKPWSYIPDGIMPIFWRVVYWTSQFLTWILLPFMQSYARSGGFSITGKIKTALIENAIYYGTYLLIFGAFLIYVAVNPHLHLEWNQLQTIGIAAANTWGLFLLVLLLGYGLVEIPRSYWNGAKRGYLLMKTYFKAAKLMTEKADAEENLEDAMEEVRKVNESIKYNHPLRKCVDTILKKCPTEYQEKMGRNMDDYEDFDEKHSIYPSEKSLVKLHKQVIYSVQRHRRTQVQWQILLEQAFYLEDVAKNETSATHQFVHTFQSPEPENRFIQYFYNPTFEWYWECLLRPWFYKILAVVLSIFSVIVVWSECTFFSTTPVLSLFAVFIQLAEKTYNYIYIEIACFLSIFFLSICVYSTVFRIRVFNYYYLASHHQTDAYSLLFSGMLFCRLTPPLCLNFLGLTHMDSSISHKNTQPTAYTSIMGSMKVLSFIADGFYIYYPMLVVILCIATYFSLGTRCLNLLGFQQFMGDDDMTSDLVNEGKELIRKEKRKRQRQEEGENRRREWKERYGHNREDSTRNRNIHTDPKESNFSDVNTNRSAFKYTRANNRTERDRIELLQDAEPLDFNAETFTDDPLESESGRYQPGGRYLSMSRSDIFNDV
modifications: interaction partner of SARS-CoV-2 M
B5: M-Q86UL3 (protein, UniProt Q86UL3 38-456, looked up)
Glycerol-3-phosphate …: VSFGIRKLYMKSLLKIFAWATLRMERGAKEKNHQLYKPYTNGIIAKDPTSLEEEIKEIRRSGSSKALDNTPEFELSDIFYFCRKGMETIMDDEVTKRFSAEELESWNLLSRTNYNFQYISLRLTVLWGLGVLIRYCFLLPLRIALAFTGISLLVVGTTVVGYLPNGRFKEFMSKHVHLMCYRICVRALTAIITYHDRENRPRNGGICVANHTSPIDVIILASDGYYAMVGQVHGGLMGVIQRAMVKACPHVWFERSEVKDRHLVAKRLTEHVQDKSKLPILIFPEGTCINNTSVMMFKKGSFEIGATVYPVAIKYDPQFGDAFWNSSKYGMVTYLLRMMTSWAIVCSVWYLPPMTREADEDAVQFANRVKSAIARQGGLVDLLWDGGLKREKVKDTFKEEQQKLYSKMIVGNHKDRSRS
modifications: interactor of M protein

Tested on: SARS-CoV-1, MERS-CoV and SARS-CoV-2 proteins in HEK293T cells
Parameters: species or system human

Molecule | MIST_MERS | MIST_SARS1 | MIST_SARS2 | Saint_MERS | Saint_SARS1 | Saint_SARS2
B1 | 0 | 0.8284 | 0 | 0 | 0.97 | 0
B2 | 0 | 0.9893 | 0 | 0 | 0.97 | 0
B3 | 0 | 0.9911 | 0 | 0 | 1 | 0
B4 | 0.9869 | 0.6855 | 0.2449 | 0.95 | 0 | 0
B5 | 0.2998 | 0.8496 | 0.485 | 0.31 | 1 | 0.96
